Where a SMILES comes first, the peptide text is derived from it. Where no end group is shown, it is not given here. The star is where a group is joined. DTPA = O=C(O)CN(CCN(CC(=O)O)CC(=O)O)CCN(CC(=O)O)CC(=O)*

The source of these data is US20040229289A1, “Antigen binding peptides (abtides) from peptide libraries” (Cytogen Corporation, priority 1994, published 2004).

In data set [1] the test system is monoclonal antibody 7E11-C5. Nature of the data set: ELISA: biotinylated monoclonal antibody 7E11-C5 binding to immobilized mimetope peptide 7E11-9.5. To be noted: wells coated with 5 μg/mL mimetope; antibody serially diluted from 29 μg/mL; FIG. 2. Set-up: species or system murine. The protocol: First the mimetope peptide 7 μl-9.5 was tested for its ability to bind to the monoclonal antibody 7E11-C5. Ninety-six well plates (Immunlon 4, Dynatech, Alexandria, Va.) were coated with 50 μL of a 5 μg/mL solution of the mimetope peptide 7 μl-9.5 and incubated overnight at room temperature. Following incubation, the wells were washed 4 times with 1% BSA in PBS. Biotinylated monoclonal antibody 7E11-C5 was serially diluted with PBS beginning with a concentration of 29 μg/mL and various amounts of the monoclonal antibody were added to the wells that had been coated with the mimetope peptide. After incubating for 1 hour at room temperature, the wells were washed four times with 1% BSA in PBS and 2 times with PBS. Then, 100 AL of a 1:2000 dilution of Extravidin-Alkaline Phosphatase (4,250 units/mL) (Sigma, St. Louis, Mo.) in PBS was added to each well. After an hour, the plate was again washed 4 times with PBS and 100 μL of a 1 mg/mL solution of the enzyme substrate p-nitrophenyl phosphate was added to each well. Color was allowed to develop for 15 minutes to 1 hour and absorbance was read at 405 nm.
Background: ELISA stands for enzyme-linked immunosorbent assay.

Data set [2] is described as follows: in vivo. Set-up: species or system SCID mice. As to conditions: male, C.B-17/Icr Tac-SCID, mouse, iv, 2 ug, total radioactivity. The protocol: (§1) Male SCID mice (C.B-17/Icr Tac—SCID mice) were purchased from Fox Chase (Philadelphia, Pa.) or. Taconic Farms (Germantown, N.Y.), were housed in sterilized cages with filter bonnets, and were given autoclaved laboratory rodent chow (Purina, St. Louis, Mo.), and filtered tap water ad libitum.
(§2) 1×10^7 cells of the human prostate tumor line LNCaP (Horoszewicz et al., 1987, Anticancer Res. 7:927-936) were injected subcutaneously (s.c.) into the left rear flank of the mice. The cells were growing in exponential phase before harvesting and had been resuspended in 0.2 mL of sterile saline. Tumors were grown in the mice for 2-3 months before abtides were injected into the mice.
(§3) For biodistribution studies, abtides were modified at their amino termini with the chelator diethylene-triamine-pentaacetic acid anhydride (DTPA-A) (Sigma, St. Louis, Mo.). Approximately 2 mg of each abtide was initially dissolved in an appropriate volume of 0.1% acetic acid and then 1 mL of 0.1 M sodium bicarbonate, pH 8.0, was added. Two mg of DTPA-A was suspended in 100 AL of dimethylsulfoxide (DMSO), and 10 μL of the abtide solution added to this DTPA-A suspension. […]
(§4) In one experiment, abtide clone 14-DPTA-^111In (see Table 2) was injected intravenously (i.v.) into two groups of mice bearing measurable LNCaP xenografts. […] Thus, the total injected dose of radioactivity was about 120-140×10^6 cpm.
(§5) The first group of mice was sacrificed 2 hours after injection of the abtide and tissues were dissected for analysis. […] Dissected tissues were weighed and the amount of ^111In in them was determined by gamma counting. The cpm per gram of each tissue was calculated by dividing the cpm of ^111In found in the tissue by the weight in grams of the tissue. […]
(§6) In another experiment, abtide clone 17-DPTA-^111In (see Table 2) was injected intravenously into four SCID mice bearing measurable LNCaP xenografts. […] Thus, the total injected dose of radioactivity was about 100-110×10^6 cpm. […]

Data set [3] deals with human prostate carcinoma LNCaP xenograft tumors. Nature of the data set: in vivo. The arrangement: species or system SCID mice. To be noted: mouse, iv. As for the experimental part: as §1, §2, §3, §4, §5, §6
Data set [4] has as its system biotinylated 7E11-9.5 mimetope peptide. The data set is described as follows: Dot blot: spotted 7E11-C5 abtides probed with biotinylated mimetope peptide. To be noted: 1 μL of 1 mg/mL abtide spotted on nitrocellulose; 0.1 mg/mL mimetope; FIG. 4. Format: binding. As for the experimental part: In some cases, these abtides were used in a dot blot experiment. In those cases, 1 μL of a 1 mg/mL solution of the 38-residue abtides was spotted onto nitrocellulose (0.2 μm or 0.45 μm, Schleicher & Schuell, Keene, NH) strips or circles. After drying (about 1/2 hour), the nitrocellulose was blocked for 1 hour in a solution of 1% BSA in PBS. The nitrocellulose was then allowed to incubate in approximately 5 mL of a solution of 0.1 mg/mL of a biotinylated 7E11-9.5 mimetope peptide (biotin-LYANPGMYSRLHSPA). This mimetope peptide was one of those described in Section 6.1.1 above that were synthesized based upon the nine peptides that were identified in the screening of Section 6.1.1 above. After an hour, the nitrocellulose was washed approximately 5 times with a solution of 1% BSA in PBS. A 1:2000 dilution of Extravidin-Alkaline Phosphatase (4,250 units/mL) (Sigma, St. Louis, Mo.) in PBS was then added and allowed to incubate for 1 hour, after which the nitrocellulose was again washed extensively. Finally, a solution of 5-bromo-4-chloro-3-indolyl phosphate (0.15 mg/mL) and nitro blue tetrazolium (0.3 mg/mL) (Sigma, St Louis, Mo.) (BCIP/NBT) was added as an enzyme substrate. Color was allowed to develop […].
In FIG. 4, the 7E11-C5 abtides known as clone 14, clone 17, clone 15, clone 16, and clone 13 were tested for their ability to bind the biotinylated 7E11-9.5 mimetope peptide. Also tested, as a positive control, was the monoclonal antibody 7E11-C5. 7E11-C5 was spotted onto the region marked 351 in FIG. 4.

The target in data set [5] is T1, native 7E11-C5 antigen in LNCaP lysates (Homo sapiens, UniProt Q04609).
T1 construct: endogenous in cells; host or cells: LNCaP cell lysate
Nature of the data set: Sandwich assay: capture of antigen from LNCaP cell lysate. Format: binding. To be noted: detection with biotinylated 7E11-C5, FIG. 6. The protocol:
A sandwich assay using the LNCaP antigen was performed. The wells of a microtiter plate were coated with either monoclonal antibody 7E11-C5, the clone 14 7E11-C5 abtide, or, as a negative control, BSA. Coating and washing was as for-the assay described in Section 6.1.2.2. One hundred microliters of a lysate of LNCaP cells was added to the wells. The LNCaP lysate was prepared as described in PCT publication WO 94/18318, dated Aug. 18, 1994. Following capture of the lysate on the plate, 100 μL of a 5 μg/mL solution of biotinylated 7E11-CS monoclonal antibody was added to each well. Following incubation and washing as in Section 6.1.2.2, a 1:2000 dilution of Extravidin-Alkaline Phosphatase (4,250 units/mL) (Sigma, St. Louis, Mo.) in PBS was added to each well and incubated for 1 hour at room temperature. Following incubation, the wells were washed four times with 1% BSA in PBS and then twice in PBS. One hundred microliters of a 1 mg/mL solution of p-nitrophenyl phosphate in diethanol amine (DEA) buffer (both from Kirkegaard & Perry Laboratories, Gaithersburg, Md.) was then added and, after incubation at room temperature for 15-30 minutes, the absorbance of the solutions in the wells was read at 405 nm.
This was a surprising discovery and would not have been predicted by those skilled in the art. […]

T1 sequence (Q04609 whole entry): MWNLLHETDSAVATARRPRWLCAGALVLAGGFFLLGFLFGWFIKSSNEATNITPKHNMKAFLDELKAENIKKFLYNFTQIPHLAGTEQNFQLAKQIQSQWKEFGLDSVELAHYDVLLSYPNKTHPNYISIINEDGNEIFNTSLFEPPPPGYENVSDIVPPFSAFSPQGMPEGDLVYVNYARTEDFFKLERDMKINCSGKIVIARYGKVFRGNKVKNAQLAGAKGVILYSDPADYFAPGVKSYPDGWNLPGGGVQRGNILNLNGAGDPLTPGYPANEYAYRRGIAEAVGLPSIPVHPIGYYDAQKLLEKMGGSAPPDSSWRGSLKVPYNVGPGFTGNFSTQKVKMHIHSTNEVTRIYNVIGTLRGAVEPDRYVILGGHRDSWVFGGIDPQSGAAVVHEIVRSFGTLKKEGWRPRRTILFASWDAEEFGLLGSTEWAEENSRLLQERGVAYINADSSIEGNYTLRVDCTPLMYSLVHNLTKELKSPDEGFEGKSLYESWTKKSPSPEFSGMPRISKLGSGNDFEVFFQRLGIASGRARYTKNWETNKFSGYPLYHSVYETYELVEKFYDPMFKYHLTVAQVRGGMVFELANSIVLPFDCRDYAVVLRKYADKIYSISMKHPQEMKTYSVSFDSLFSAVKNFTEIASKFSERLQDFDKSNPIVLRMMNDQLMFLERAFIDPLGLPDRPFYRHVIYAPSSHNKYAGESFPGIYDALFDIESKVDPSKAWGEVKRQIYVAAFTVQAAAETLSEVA

Consider “LYANPGMYSRLHSPA (not fully specified (N-terminus, C-terminus)) [7E11-9.5]”, for which the “binding of monoclonal antibody 7E11-C5 to mimetope (absorbance at 405 nm)” value in data set [1] is “binds to the synthesized mimetope 7E11-9.5 in a concentration dependent manner”.
Consider `CC[C@H](C)[C@H](NC(=O)CNC(=O)CN(CCN(CCN(CC(=O)O)CC(=O)O)CC(=O)O)CC(=O)O)C(=O)N[C@H](C(=O)N[C@@H](CC(N)=O)C(=O)N[C@@H](C)C(=O)N[C@@H](CC(N)=O)C(=O)N[C@@H](CC(=O)O)C(=O)N1CCC[C@H]1C(=O)N[C@@H](CC(C)C)C(=O)N1CCC[C@H]1C(=O)N[C@@H](Cc1ccccc1)C(=O)N[C@@H](Cc1c[nH]c2ccccc12)C(=O)N[C@@H](Cc1ccccc1)C(=O)N[C@@H](CCSC)C(=O)N[C@@H](CO)C(=O)N1CCC[C@H]1C(=O)N[C@@H](Cc1ccc(O)cc1)C(=O)N[C@H](C(=O)N1CCC[C@H]1C(=O)NCC(=O)N1CCC[C@H]1C(=O)N[C@@H](C)C(=O)N1CCC[C@H]1C(=O)N[C@H](C(=O)N[C@@H](CC(=O)O)C(=O)N[C@H](C(=O)N[C@@H](CC(N)=O)C(=O)N[C@@H](C)C(=O)N[C@@H](CO)C(=O)N[C@@H](CCCNC(=N)N)C(=O)N[C@@H](C)C(=O)N[C@@H](CC(C)C)C(=O)N[C@H](C(=O)N[C@@H](CO)C(=O)N[C@@H](CC(N)=O)C(=O)N[C@@H](CCC(=O)O)C(=O)N[C@@H](CO)C(=O)NCC(N)=O)C(C)C)[C@@H](C)CC)[C@@H](C)CC)[C@@H](C)O)[C@@H](C)CC` [abtide clone 14-DPTA-^111In, metal not drawn] ({DTPA}-GIINANDPLPFWFMSPYTPGPAPIDINASRALVSNESG-NH2; N-terminus and C-terminus assumed), for which the tissue to tissue ratio at 2 h in data set [2] was determined as 1.85. The “localization to LNCaP xenograft tumors” value in data set [3] is reported as “specific localization to the tumor”.
Take “GIINANDPLPFWFMSPYTPGPAPIDINASRALVSNESG [clone 14]”: in data set [4], the “binding of biotinylated 7E11-9.5 mimetope peptide in dot blot” value is on record as “bound the mimetope”. In addition, the “recognition (capture) of native 7E11-C5 antigen” value in data set [5] is “capable of recognizing the native 7E11-C5 antigen in LNCaP lysates”.
